Test results reported in patent US20110274702A1.

What was measured:
Experiment in all cases: ELISA on coated HA
[1] = target: B/Ohio/1/05 HA protein (influenza B virus B/Ohio/1/05)
[2] = target: H10N4 A/mink/Sweded/3900/84 HA protein (influenza A virus H10N4 A/mink/Sweded/3900/84)
[3] = target: H1N1 A/Brisbane/59/07 HA protein (influenza A virus H1N1 A/Brisbane/59/07)
[4] = target: H3N2 A/Brisbane/10/07 HA protein (influenza A virus H3N2 A/Brisbane/10/07)
[5] = target: H3N2 A/New York/55/04 HA protein (influenza A virus H3N2 A/New York/55/04)
[6] = target: H3N2 A/Wyoming/3/03 HA protein (influenza A virus H3N2 A/Wyoming/3/03)
[7] = target: H4N6 A/duck/Czechoslovakia/56 HA protein (influenza A virus H4N6 A/duck/Czechoslovakia/56) (UniProt P19696)
[8] = target: H5N1 A/Viet Nam/1/05 HA protein (influenza A virus H5N1 A/Viet Nam/1/05)
[9] = target: H5N1 A/Viet Nam/1203/04 HA protein (influenza A virus H5N1 A/Viet Nam/1203/04)
[10] = target: H6N5 A/shearwater/Australia/1/72 HA protein (influenza A virus H6N5 A/shearwater/Australia/1/72)
[11] = target: H7N3 A/Canada/444/04 HA protein (influenza A virus H7N3 A/Canada/444/04)
[12] = target: H7N7 A/Netherlands/219/03 HA protein (influenza A virus H7N7 A/Netherlands/219/03)
[13] = target: H8N4 A/Alberta/357/84 HA protein (influenza A virus H8N4 A/Alberta/357/84)
[14] = target: H9N2 A/Hong Kong/1073/99 HA protein (influenza A virus H9N2 A/Hong Kong/1073/99)

Measured: EC50

ctr (antibody)
> 20 mg/L: all assays above
